From US20040076995A1, “Nurr1 transcription factor 1-box mutants having monomeric transcriptional activation activity” (priority 2001, published 2004)
Changes are numbered by the printed parent chain. Names may count otherwise.

B1: Gal4 DNA-binding domain fused to Nurr1 ligand-binding domain (amino acids 353-598) KLL(554-556)AAA (other, yeast;mouse, UniProt P04386 1-147, looked up)
chain: MKLLSSIEQACDICRLKKLKCSKEKPKCAKCLKNNWECRYSPKTKRSPLTRAHLTEVESRLERLEQLFLLIFPREDLDMILKMDSLQDIKALLTGLFVQDNVNKDAVTDRLASVETDMPLTLRQHRISATSSSEESSNKGQRQLTVSQDPSPPSPPVSLISALVRAHVDSNPAMTSLDYSRFQANPDYQMSGDDTQHIQQFYDLLTGSMEIIRGWAEKIPGFADLPKADQDLLFESAFLELFVLRLAYRSNPVEGKLIFCNGVVLHRLQCVRGFGEWIDSIVEFSSNLQNMNIDISAFSCIAALAMVTERHGLKEPKRVEELQNKIVNCLKDHVTFNNGGLNRPNYLSAAAGKLPELRTLCTQGLQRIFYLKLEDLVPPPAIIDKLFLDTLPF
notes: range 1-147;range 353-598; Two-hybrid bait, expressed in JEG3 cells; also called pCMX-Gal4-Nurr1-LBD derivative KLL(554-556)AAA
B2: Gal4 DNA-binding domain fused to Nurr1 ligand-binding domain (amino acids 353-598) GKL(557-559)AAA (other, yeast;mouse, UniProt P04386 1-147, looked up)
chain: B1 chain with A349K, A350L, A351L, G352A, K353A, L354A
notes: range 1-147;range 353-598; Two-hybrid bait, expressed in JEG3 cells; also called pCMX-Gal4-Nurr1-LBD derivative GKL(557-559)AAA
B3: Gal4 DNA-binding domain fused to Nurr1 ligand-binding domain (amino acids 353-598) PEL(560-562)AAA (other, yeast;mouse, UniProt P04386 1-147, looked up)
chain: B1 chain with A349K, A350L, A351L, P355A, E356A, L357A
notes: range 1-147;range 353-598; Two-hybrid bait, expressed in JEG3 cells
B4: KLL(554-556)AAA: mouse Nurr1 I-box mutant, residues Lys554-Leu555-Leu556 substituted by three alanines (protein)
chain: MPCVQAQYGSSPQGASPASQSYSYHSSGEYSSDFLTPEFVKFSMDLTNTEITATTSLPSFSTFMDNYSTGYDVKPPCLYQMPLSGQQSSIKVEDIQMHNYQQHSHLPPQSEEMMPHSGSVYYKPSSPPTPSTPSFQVQHSPMWDDPGSLHNFHQNYVATTHMIEQRKTPVSRLSLFSFKQSPPGTPVSSCQMRFDGPLHVPMNPEPAGSHHVVDGQTFAVPNPIRKPASMGFPGLQIGHASQLLDTQVPSPPSRGSPSNEGLCAVCGDNAACQHYGVRTCEGCKGFFKRTVQKNAKYVCLANKNCPVDKRRRNRCQYCRFQKCLAVGMVKEVVRTDSLKGRRGRLPSKPKSPQDPSPPSPPVSLISALVRAHVDSNPAMTSLDYSRFQANPDYQMSGDDTQHIQQFYDLLTGSMEIIRGWAEKIPGFADLPKADQDLLFESAFLELFVLRLAYRSNPVEGKLIFCNGVVLHRLQCVRGFGEWIDSIVEFSSNLQNMNIDISAFSCIAALAMVTERHGLKEPKRVEELQNKIVNCLKDHVTFNNGGLNRPNYLSAAAGKLPELRTLCTQGLQRIFYLKLEDLVPPPAIIDKLFLDTLPF
B5: E561A: mouse Nurr1 I-box mutant, Glu561 substituted by alanine (protein)
chain: B4 chain with A554K, A555L, A556L, E561A
B6: PEL(560-562.)AAA: mouse Nurr1 I-box mutant, residues 560-562 (PEL) substituted by three alanines (protein)
chain: B4 chain with A554K, A555L, A556L, P560A, E561A, L562A
B7: K558A: mouse Nurr1 I-box mutant, Lys558 substituted by alanine (protein)
chain: B4 chain with A554K, A555L, A556L, K558A
B8: GKL(557-559)AAA: mouse Nurr1 I-box mutant, residues 557-559 (GKL) substituted by three alanines (protein)
chain: B4 chain with A554K, A555L, A556L, G557A, K558A, L559A
B9: L562A: mouse Nurr1 I-box mutant, Leu562 substituted by alanine (protein)
chain: B4 chain with A554K, A555L, A556L, L562A
B10: P560A: mouse Nurr1 I-box mutant, Pro560 substituted by alanine (protein)
chain: B4 chain with A554K, A555L, A556L, P560A
B11: betaRE probe (hRARbeta2 promoter RARE) (dsDNA)
DNA 1: AGCTTAAGGGGTTCACCGAAAGTTCACTCGCAT
DNA 2: ATGCGAGTGAACTTTCGGTGAACCCCTTAAGCT

Key:
[1] = target: T1, VP16-RXR (herpes simplex VP16 trans-activation domain followed by the complete coding sequence of human RXRα) (herpes simplex; human, UniProt P19793 1-462); test: mammalian two-hybrid assay, JEG3 cells
T1 construct: Two-hybrid prey, expressed in JEG3 cells; also called pCMX-VP16-RXR
T1 sequence: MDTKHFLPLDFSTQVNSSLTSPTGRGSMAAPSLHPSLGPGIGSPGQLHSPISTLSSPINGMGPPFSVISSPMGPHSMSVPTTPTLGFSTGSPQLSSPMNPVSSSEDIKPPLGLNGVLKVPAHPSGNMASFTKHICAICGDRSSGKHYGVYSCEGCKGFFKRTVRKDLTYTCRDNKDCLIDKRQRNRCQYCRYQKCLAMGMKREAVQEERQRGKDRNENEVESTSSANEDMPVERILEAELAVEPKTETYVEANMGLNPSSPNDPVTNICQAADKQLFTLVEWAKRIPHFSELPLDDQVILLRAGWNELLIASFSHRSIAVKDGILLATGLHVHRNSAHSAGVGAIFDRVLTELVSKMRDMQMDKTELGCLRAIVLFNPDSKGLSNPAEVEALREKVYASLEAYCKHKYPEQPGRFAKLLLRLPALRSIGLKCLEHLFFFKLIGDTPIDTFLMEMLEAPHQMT

Nurr1-RXR heterodimer = test: Nurr1-RXR heterodimer-mediated transactivation, βRE luciferase reporter in JEG3 cells; type: cell-based, human; conditions: βRE-tk luciferase reporter, RXR ligand SR11237 1 μM, effect of the mutation vs wild-type Nurr1
Protocol: The wild-type and mutated Nurr1 derivatives were transfected in JEG3 cells. The ability to transactivate was assessed using a luciferase reporter gene driven by three copies of the hRARβ2 promoter RARE (βRE) upstream of a thymidine kinase promoter.
The influence of the I-box mutations on Nurr1 transcriptional activity and on the ability to interact with RXR was examined as described by Perlmann and Jansson 1995, Zetterström et al. 1996, and Castro et al. 1999. Nurr1-RXR heterodimer-mediated transactivation was studied in human chorion carcinoma JEG3 cells. The cells were maintained in minimum essential medium supplemented with 10% fetal calf serum. Transfections were performed in quadruplicates in 24-well plates using the calcium phosphate precipitation method. The cells were plated 24 h prior to the transfection. Each well was transfected with 100 ng of the expression vector for the Nurr1 variants, 100 ng of a reporter plasmid, and 200 ng of βgalactoside plasmid that was used as an internal control for transfection efficiency. The luciferase reporter used was driven by three copies of the retinoid acid response element (RARE) of the human retinoid acid receptorβ2 (hRARβ2) gene promoter (βRE) upstream of the thymidine kinase promoter. 6-8 hours after transfection, the cells received fresh medium supplemented with 10% charcoal-stripped fetal calf,serum and RXR ligand (SR11237;1 μM). The cells were harvested 24 hours late and lysed. The cells extracts were assayed for luciferase and βgalactosidase activity. The ability of the Nurr1 mutants to interact with RXR was examined using the mammalian two-hybrid assay. The ligand-binding domains (amino acids 353-598; LBD) of both wild-type and mutated Nurr1 variants were cloned in frame with the yeast Gal4 DNA-binding domain (amino acids 1-147) in the pCMX-Gal4 expression vector (Perlmann and Jansson 1995). JEG3 cells were cotransfected with pCMX-Gal4-Nurr1-LBD derivatives and pCMX-VP16-RXR containing the herpes simplex VP16 trans-activation domain followed by the complete coding sequence of human RXRα. A reporter gene with four copies of the Gal4-binding sites was used.

[2] = test system: NGFI-B response element (NBRE) reporter; test: Monomeric reporter gene activation, NBRE reporter in 293 cells (full-length receptor); type: cell-based, human; conditions: three copies of NBRE reporter, effect of the mutation vs wild-type Nurr1
Protocol: The monomeric activity was examined in 293 cells. The full-length receptor derivatives were studied using a reporter gene regulated by three copies of the NGFI-B binding site (NBRE; FIG. A).
The ability of the mutants to activate reporter gene expression as monomers were studied in human embryonic kidney 293 cells. The cells were maintained in Dulbecco's modified Eagles medium with 10% fetal calf serum. Transfections were carried out as with JEG3 cells except that a reporter regulated by three copies of the NGFI-B (nerve growth factor inducible-B)response element (Wilson et al., 1991) (NBREs) was used. The transcriptional activities of the mutated ligand-binding domains were assessed as fusions to the Gal4 DNA-binding domain and a reporter gene with four copies of the Gal4-binding sites was used. All the transfection experiments were performed in quadruplicate dishes and each experiment has been repeated at least twice with essentially identical results. The results of a representative experiment are shown.

Nurr1 P560A + RXR = Nurr1 P560A + RXR (Mus musculus / Homo sapiens?, UniProt Q06219;P19793 Q06219:1-598,P19793:1-462, Nurr1 P560A); test: EMSA; no heterodimer on DNA; monomeric binding retained; conditions: label: 32P (Klenow fill-in)
Protocol: (§1) The DNA-binding experiments were carried out as described by Castro et al. 1999. Briefly, Nurr1 and RXR proteins for gel mobility shift assays were produced by coupled in vitro transcription and translation in reticulocyte lysates according to the manufacturer's instructions (TNT Quick Coupled Trans cription/Translation System™; Promega). The proteins were incubated in a binding buffer containing 10 mM Tris (pH 8.0), 40 mM KCI, 0.05% NP-40, 6% glycerol, 1 mM DTT, 0.2mg poly(dI-dC) and protease inhibitors. βRE-probe (agcttaagg[…]ctcgcat; SEQ ID NO:9) was labelled with ³²P by fill-in reaction using Klenow fragment. After addition of the probe, the reactions were incubated on ice for 20 min. Protein-DNA complexes were resolved by electrophoresis on 4% non-denaturating polyacrylamide gel in 0.5×TBE. After electrophoresis, the gels were dried for autoradiography.

[3] = target: Nurr1 PEL(560-562)AAA + RXR (Mus musculus / Homo sapiens?, UniProt Q06219;P19793 Q06219:1-598,P19793:1-462, Nurr1 P560A,E561A,L562A); test: as above; conditions: label: 32P (Klenow fill-in)
Protocol: as §1

Nurr1 KLL(554-556)AAA = Nurr1 KLL(554-556)AAA (Mus musculus, UniProt Q06219 Q06219:1-598, K554A,L555A,L556A); test: EMSA; monomeric DNA binding not influenced; betaRE is the only probe described; conditions: label: 32P (Klenow fill-in)
Protocol: as §1

Nurr1 P560A = Nurr1 P560A (Mus musculus, UniProt Q06219 Q06219:1-598, P560A); test: as above; conditions: label: 32P (Klenow fill-in)
Protocol: as §1

Nurr1 GKL(557-559)AAA = Nurr1 GKL(557-559)AAA (Mus musculus, UniProt Q06219 Q06219:1-598, G557A,K558A,L559A); test: as above; conditions: label: 32P (Klenow fill-in)
Protocol: as §1

Nurr1 PEL(560-562)AAA = Nurr1 PEL(560-562)AAA (Mus musculus, UniProt Q06219 Q06219:1-598, P560A,E561A,L562A); test: as above; conditions: label: 32P (Klenow fill-in)
Protocol: as §1

[4] = target: Nurr1 wild type/RXR heterodimer (Mus musculus / Homo sapiens?, UniProt Q06219;P19793 Q06219:1-598,P19793:1-462); test: EMSA; heterodimer; 10 mM Tris pH 8.0, 40 mM KCl, poly(dI-dC), on ice; conditions: label: 32P (Klenow fill-in)
Protocol: as §1

Molecule	ability of Nurr1 to promote RXR-mediated transactivation (Nurr1-RXR heterodimer)	ability to activate reporter gene expression as monomers (monomeric activity) [2]	further results
B1			binding result [1]: no binding
B2			binding result [1]: no binding
B3			binding result [1]: no binding
B4	abolished	intact	
B5	no effect		
B6	abolished	intact	
B7	only a modest effect		
B8	abolished	intact	
B9	reduced		
B10	abolished	no effect	
B11			binding result (Nurr1 P560A + RXR): no binding; binding result [3]: no binding; binding result (Nurr1 KLL(554-556)AAA): binds; binding result (Nurr1 P560A): binds; binding result (Nurr1 GKL(557-559)AAA): binds; binding result (Nurr1 PEL(560-562)AAA): binds; binding result [4]: binds
